This is an account of results in patent US20250170257A1 (NANOLATTIX BIOTECHNOLOGY, published 2025).

The target of experiment [1] is T1, tissue factor (UniProt P13726 33-251, limits assumed).
T1 construct: also called TF; antigen tissue factor
Briefly: SPR (Biacore S200), antibody amine-coupled on CM5 chip, tissue factor as analyte 1.125-18 nM; MAb02. The text has this:
(§1) The humanized anti-tissue factor antibody was coupled to the 2nd channel on the surface of the CM5 chip via amino groups, the 1st and the 3rd channels were used as reference channels, the tissue factor flew through the chip surface as the analyte (mobile phase). […] The Kinetics/Affinity program of Bicore S200 was run to measure the affinity.

For experiment [2], the target named is T1, tissue factor. Briefly: SPR (Biacore S200), antibody amine-coupled on CM5 chip, tissue factor as analyte 1.125-18 nM; MAb01.
Source text: as §1
A general note: SPR reads the build-up and loss of mass on a sensor chip optically.

Experiment [3] deals with T1, tissue factor. As to the kind of experiment: SPR (Biacore S200), same method, tissue factor as analyte 12.5-200 nM; parent antibody before modification; tissue factor 12.5-200 nM.
Source text: as §1

T1 sequence (P13726 33-251 limits assumed): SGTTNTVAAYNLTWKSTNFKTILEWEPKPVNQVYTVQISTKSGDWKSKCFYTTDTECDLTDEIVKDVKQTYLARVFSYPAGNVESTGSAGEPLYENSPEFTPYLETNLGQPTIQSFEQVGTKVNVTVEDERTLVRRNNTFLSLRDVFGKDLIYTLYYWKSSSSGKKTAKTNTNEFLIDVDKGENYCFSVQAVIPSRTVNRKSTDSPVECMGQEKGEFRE

B1: humanized anti-tissue factor antibody MAb02 (antibody, V domains shown)
VH: QIQLVQSGPEVVKPGASVRVSCKGSGYSFTDYNIYWVRQSPAKGLEWIGYIDPYNGLTIYDQNFRAKATLSVDHSTSNAYMEINSLRYEDTAVYFCARDVTSALEFWGQGTSVTVSS
VL: DIQMTQSPASISASVGERVTITCLGSQTIDTYLAWYLQKPGRSPQLLIYAATQLADGVPSRFSASGSGTDFSLTISSLQPEDVATYYCQNVYSSPFTFGQGNKLEIKR
notes: Full heavy chain (449 aa) and light chain (214 aa), expressed in CHO-dhfr- cells
For B1, binding in experiment [1] was characterised by a dissociation constant (Kd) of 1 nM.

B2: humanized anti-tissue factor antibody MAb01 (antibody, V domains shown)
VH: QIQLVQSGPELVKPGASVQVSCKTSGYSFTDYNVYWVRQSPAKGIEWIGYIDPYNGLTIYEQNFRGKGTLSLDHSTSTAYMELNSLRYEDTAVYFCARDVTTALDFWGQGTSVTVSS
VL: DIQMTQSPASISASIGERVTITCLASQTIDTWLAWFLQKPGRSPNLLIYAATNLADGVPYRFSASGSGNDFSLTISSLNPEDVATYYCQQVYSSPFTFGQGNKLEIRR
For B2, the affinity in experiment [2], expressed as Kd, was 0.357 nM.

B3: humanized antibody against tissue factor before modification (CN 107446047A) (antibody, V domains shown)
VH: EVQLQQSGPELVKPGASVKVSCKASGYTFTHFNVYWVRQSPGKGLEWIGYIDPDNGITFYDENFMGKATLTVDKSSSTAYMQLNSLTSEDSAVYYCARDVTTAVDFWGQGTTLTVSS
VL: DIQMTQSPSSLSASVGDRVTITCLATQTLDTWLAWYQQKPGKAPQLLIYAATYLADGVPSRFSGSGSGTDFTFTISSLQPEDFATYYCQLVYSSPSTFGQGTKLEIK
notes: also called humanized antibody before modified
As for B3, in experiment [3], the Kd (commonly the concentration at which binding is half-saturated) stood at 33.7 nM.
